Experimental data as given in article PMC6439349.

B1: CouY (natural protein)
chain: MATNPFDDENGVYLLLVNDEGQHSLWPSFAALPKGWTVILDEASRQECLDYVNEHWTDMRPLSLQPAMGDE
B2: MbtH (natural protein)
chain: MSTNPFDDDNGAFFVLVNDEDQHSLWPVFADIPAGWRVVHGEASRAACLDYVEKNWTDLRPKSLRDAMAED
B3: TioT (natural protein)
chain: MSVNPFDDEDGEFYVLVNDEEQHSLWPTFGDVPDGWRIVFGPAGRAESVAYVEENWTDMRPKSLREAMSAA

What was measured:
TioK [1] = assay: AUC
[2] = target: TioK-MyavAcA complex (not stated | Mycobacterium avium); assay: AUC
TioK-TioT complex = TioK-TioT complex (UniProt Q333U6); assay: AUC
[3] = target: TioK-Ecm8 complex (not stated | Streptomyces lasaliensis); assay: AUC
[4] = target: TioK-MypaAaA complex (not stated | Mycobacterium paratuberculosis); assay: AUC
[5] = target: TioK-MyabAaA complex (not stated | Mycobacterium abscessus); assay: AUC
[6] = target: TioK-MbtH complex (not stated | Mycobacterium tuberculosis H37Rv) (UniProt P9WIP4); assay: […]
[7] = target: TioK-MymaAcA complex (not stated | Mycobacterium marinum); assay: AUC
[8] = target: TioK-KtzJ complex (not stated | Kutzneria sp. 744); assay: AUC
TioK [9] = assay: […]

Row | Molecule | approximate mole fraction of TioK-MLP complex (TioK [1]) | stoichiometry N (TioK [1]) | also measured
1 | PA2412 (from UniProt Q9I169 1-72) (natural protein) | 0.87 | 1 MLP per TioK | 
2 | TioK-MyavAcA complex |  |  | stoichiometry N (multiple of MW(1:1)) [2]: 1.96
3 | TioK-TioT complex (from UniProt Q333U6 1-71) |  |  | stoichiometry N (multiple of MW(1:1)) (TioK-TioT complex): 1.98
4 | TioK-Ecm8 complex |  |  | stoichiometry N (multiple of MW(1:1)) [3]: 1.93
5 | TioK-MypaAaA complex |  |  | stoichiometry N (multiple of MW(1:1)) [4]: 2.05
6 | TioK-MyabAaA complex |  |  | stoichiometry N (multiple of MW(1:1)) [5]: 1.96
7 | TioK-MbtH complex (from UniProt P9WIP4 1-71) |  |  | stoichiometry N (multiple of MW(1:1)) [6]: 2.06
8 | TioK-MymaAcA complex |  |  | stoichiometry N (multiple of MW(1:1)) [7]: 1.94
9 | TioK-KtzJ complex |  |  | stoichiometry N (multiple of MW(1:1)) [8]: 1.92
10 | Ecm8 (natural protein) | 0.76 | 1 MLP per TioK | 
11 | KtzJ (natural protein) | 0.92 | 1 MLP per TioK | 
12 | B1 | 0.84 | 1 MLP per TioK | 
13 | B2 |  |  | approximate mole fraction of TioK-MLP complex (TioK [9]): 0.82; stoichiometry N (TioK [9]): 1 MLP per TioK
14 | B3 | 0.88 | 1 MLP per TioK | 
